According to patent publication US20180282373A1 (RESEARCH FOUNDATION FOR THE STATE UNIVERSITY OF NEW YORK, published 2018):
Blank lines part the entries; values can stand above or below the binder they belong to.

How the values were obtained:
[1] = target: endogenous WDR5 (MCF-7 cell extracts; T-REx HEK293 nuclear extracts) (human, UniProt P61964 2-334); assay: anti-Flag co-immunoprecipitation from T-REx HEK293 cells, Western blot
Description: Co-immunoprecipitation from mammalian cells. […] Following induction with doxycycline, nuclear extracts were prepared as described and incubated with anti-Flag M2 agarose beads (Sigma) for 3 h. Bound proteins were eluted with SDS sample buffer after extensive washing and analyzed by Western blotting.

[2] = target: T1, purified recombinant full-length WDR5 (UniProt P61964 2-334); assay: cell-based or functional assay
[3] = target: T1, purified recombinant full-length WDR5; assay: cell-based or functional assay; remark: listed apart in the source
[4] = target: T1, purified recombinant full-length WDR5; assay: ITC, Kd compared with Table I
Description: (§1) In the present disclosure, we synthesized a six-residue peptidomimetic.
(§2) Isothermal titration calorimetry (ITC). […] ITC experiments were carried out at 20° C. using a VP-ITC micro-calorimeter (MicroCal). […] Reference power was set to 10 μCal/sec and stirring speed was set to 295 rpm. Data were integrated using NITPIC. SEDPHAT was used to fit the integrated data to a single-site heterogeneous association model, using simulated annealing and Maxquardt-Levenberg algorithms. Automatic confidence interval search with projection method was applied to estimate the error of the determined thermodynamic parameters. Confidence interval was set to 2σ (95%). ITC figure was generated using GUSSI.

[5] = target: T1, purified recombinant full-length WDR5; assay: ITC at 20 C, Win6mer (200 µM) titrated into full-length WDR5 (20 µM); 95% confidence interval 1.7-4.2 nM
Description: as §1, §2

[6] = target: T1, purified recombinant full-length WDR5; assay: GST pull-down with purified WDR5, Coomassie-stained gel

binding result [1]: no binding
B1: Flag-tagged full-length human SETd1B, Win motif arginine to alanine mutant (enzyme)
chain: MENSHPPHHHHQQPPPQPGPSGERRNHHWRSYKLMIDPALKKGHHKLYRYDGQHFSLAMSSNRPVEIVEDPRVVGIWTKNKELELSVPKFKIDEFYVGPVPPKQVTFAKLNDNIRENFLRDMCKKYGEVEEVEILYNPKTKKHLGIAKVVFATVRGAKDAVQHLHSTSVMGNIIHVELDTKGETRMRFYELLVTGRYTPQTLPVGELDAVSPIVNETLQLSDALKRLKDGGLSAGCGSGSSSVTPNSGGTPFSQDTAYSSCRLDTPNSYGQGTPLTPRLGTPFSQDSSYSSRQPTPSYLFSQDPAVTFKARRHESKFTDAYNRRHEHHYVHNSPAVTAVAGATAAFRGSSDLPFGAVGGTGGSSGPPFKAQPQDSATFAHTPPPAQATPAPGFKSAFSPYQTPVAHFPPPPEEPTATAAFGARDSGEFRRAPAPPPLPPAEPLAKEKPGTPPGPPPPDTNSMELGGRPTFGWSPEPCDSPGTPTLESSPAGPEKPHDSLDSRIEMLLKEQRTKLLFLREPDSDTELQMEGSPISSSSSQLSPLAPFGTNSQPGFRGPTPPSSRPSSTGLEDISPTPLPDSDEDEELDLGLGPRPPPEPGPPDPAGLLSQTAEVALDLVGDRTPTSEKMDEGQQSSGEDMEISDDEMPSAPITSADCPKPMVVTPGAAAVAAPSVLAPTLPLPPPPGFPPLPPPPPPPPPQPGFPMPPPLPPPPPPPPPAHPAVTVPPPPLPAPPGVPPPPILPPLPPFPPGLFPVMQVDMSHVLGGQWGGMPMSFQMQTQVLSRLMTGQGACPYPPFMAAAAAAASAGLQFVNLPPYRGPFSLSNSGPGRGQHWPPLPKFDPSVPPPGYMPRQEDPHKATVDGVLLVVLKELKAIMKRDLNRKMVEVVAFRAFDEWWDKKERMAKASLTPVKSGEHKDEDRPKPKDRIASCLLESWGKGEGLGYEGLGLGIGLRGAIRLPSFKVKRKEPPDTTSSGDQKRLRPSTSVDEEDEESERERDRDMADTPCELAKRDPKGVGVRRRPARPLELDSGGEEDEKESLSASSSSSASSSSGSSTTSPSSSASDKEEEQESTEEEEEAEEEEEEEVPRSQLSSSSTSSTSDKDDDDDDSDDRDESENDDEDTALSEASEKDEGDSDEEETVSIVTSKAEATSSSESSESSEFESSSESSPSSSEDEEEVVAREEEEEEEEEEMVAEESMASAGPEDFEQDGEEAALAPGAPAVDSLGMEEEVDIETEAVAPEERPSMLDEPPLPVGVEEPADSREPPEEPGLSQEGAMLLSPEPPAKEVEARPPLSPERAPEHDLEVEPEPPMMLPLPLQPPLPPPRPPRPPSPPPEPETTDASHPSVPPEPLAEDHPPHTPGLCGSLAKSQSTETVPATPGGEPPLSGGSSGLSLSSPQVPGSPFSYPAPSPSLSSGGLPRTPGRDFSFTPTFSEPSGPLLLPVCPLPTGRRDERSGPLASPVLLETGLPLPLPLPLPLPLALPAVLRAQARAPTPLPPLLPAPLASCPPPMKRKPGRPRRSPPSMLSLDGPLVRPPAGAALGRELLLLPGQPQTPVFPSTHDPRTVTLDFRNAGIPAPPPPLPPQPPPPPPPPPVEPTKLPFKELDNQWPSEAIPPGPRGRDEVTEEYMELAKSRGPWRRPPKKRHEDLVPPAGSPELSPPQPLFRPRSEFEEMTILYDIWNGGIDEEDIRFLCVTYERLLQQDNGMDWLNDTLWVYHPSTSLSSAKKKKRDDGIREHVTGCAASEGFYTIDKKDKLRYLNSSRASTDEPPADTQGMSIPAQPHASTRAGSERRSEQRRLLSSFTGSCDSDLLKFNQLKFRKKKLKFCKSHIHDWGLFAMEPIAADEMVIEYVGQNIRQVIADMREKRYEDEGIGSSYMFRVDHDTIIDATKCGNFARFINHSCNPNCYAKVITVESQKKIVIYSKQHINVNEEITYDYKFPIEDVKIPCLCGSENCRGTLN
notes: mature; also called SETd1B Win motif mutant (full-length); not shown: Flag tag

IC50, inhibition of MLL1 core complex, 0.5 µM enzyme complex assayed [2]: 300 nM | IC50, inhibition of MLL1 core complex, 1 µM enzyme complex assayed [2]: 800 nM | IC50, inhibition of MLL1 core complex, 1.8 µM enzyme complex assayed [2]: 2200 nM | average IC50, inhibition of MLL1 core complex (2 µM of enzyme complex assayed) [2]: 2200 nM | average IC50, inhibition of SETd1A core complex (2 µM of enzyme complex assayed) [2]: 2500 nM | IC50, inhibition of MLL1 core complex methyltransferase activity, H3K4me0 substrate (scintillation proximity assay) [3]: 2300 nM | IC50, inhibition of MLL1 core complex methyltransferase activity, H3K4me1 substrate (scintillation proximity assay) [3]: 2200 nM | IC50, inhibition of SETd1A core complex methyltransferase activity, H3K4me0 substrate (scintillation proximity assay) [3]: 3200 nM | IC50, inhibition of SETd1A core complex methyltransferase activity, H3K4me1 substrate (scintillation proximity assay) [3]: 2900 nM | IC50, inhibition of SETd1A core complex methyltransferase activity, H3K4me2 substrate (scintillation proximity assay) [3]: 2400 nM | fold increase in binding affinity over the best naturally occurring Win motif sequence [4]: ~18 fold | Kd [5]: 2.9 nM
B2: Win6mer, Ac-ARTEVY-NH2 (SEQ ID NO:8, N-terminus acetylated and C-terminus amidated) (peptide)
peptide: Ac-ARTEVY-NH2
notes: Synthesized by GenScript; also called 6-mer Win motif peptidomimetic

binding result [6]: no binding (tested: 3 µM)
B3: GST-tagged SETd1B Win-SET domain, Setd1B(1727-1966), R1748A (enzyme)
chain: LSSAKKKKRDDGIREHVTGCAASEGFYTIDKKDKLRYLNSSRASTDEPPADTQGMSIPAQPHASTRAGSERRSEQRRLLSSFTGSCDSDLLKFNQLKFRKKKLKFCKSHIHDWGLFAMEPIAADEMVIEYVGQNIRQVIADMREKRYEDEGIGSSYMFRVDHDTIIDATKCGNFARFINHSCNPNCYAKVITVESQKKIVIYSKQHINVNEEITYDYKFPIEDVKIPCLCGSENCRGTLN
notes: also called SETd1B^R1748A; SETd1B Win motif mutant; not shown: GST tag of the pGST parallel vector, with its linker, at the N end
